Columns and labels:
[1] = system: CMT-93 murine intestinal epithelial cells; assay: HRF secretion into culture supernatant, western blot, CMT-93; format: cell-based, mouse; conditions: stimulated overnight, 20 or 100 ng/ml
Method: (§1) FIGS. 4A-4C show HRF is secreted by various cells. CMT-93 murine intestinal epithelial cells (FIG. 4A) and NIH/3T3 murine fibroblasts (FIG. 4B) and Raw264.7 murine macrophages (FIG. 4C) were stimulated overnight with low (20 ng/ml) and high (100 ng/mL) concentrations of various cytokines. HRF secreted into culture supernatants was detected by western blotting. Med and US denote medium only and supernatant from unstimulated cells, respectively. −DTT and +DTT indicate SDS gels were run under non-reducing and reducing conditions, respectively. Gel portions of containing the 23 kDa HRF monomer are shown except that a larger portion of the non-reducing gel is shown in panel C. Arrow indicates the position of HRF dimer, which disappeared under reducing conditions.
(§2) The following cell lines were cultured in DMEM plus 10% FCS except for U-937 cells which were cultured in RPMI1640 plus 10% FCS: CMT-93 mouse and Caco-2 (with 20% FCS) human intestinal epithelial cell lines; NIH/3T3 mouse fibroblast line; Raw 264.7 mouse and U-937 human macrophage lines; BEAS-2B human bronchial epithelial cell line; 293T human embryonic kidney cell line (obtained from ATCC, Manassas, Va., except for NIH/3T3, which was provided by S. A. Aaronson, NIH). Fibroblast-like stromal cells were cultured from small intestines of BALB/c mice in DMEM/10% FBS. CD4^+ T and B cells were purified from mouse spleens using BD IMag™ Mouse CD4 and B cells enrichment set-DM. Low-density bone-marrow cells were cultured in the presence of 100 ng/ml of stem cell factor (PeproTech) and 100 ng/ml of FLT-3 ligand (R&D Systems) for 4 days, and with 10 ng/mL of IL-5 (R&D Systems) thereafter for 10 days to obtain bone marrow-derived eosinophils (44). Bone marrow cells were cultured in the presence of 20 ng/ml of GM-CSF for 6 days and adherent cells were collected as bone marrow-derived macrophages. Non-adherent cells were further cultured with 5 ng/ml GM-CSF and the non-adherent cells were collected as bone marrow-derived dendritic cells. […]

[2] = system: NIH/3T3 murine fibroblasts and primary intestinal fibroblasts; assay: HRF secretion into culture supernatant, western blot, fibroblasts; format: cell-based, mouse; conditions: stimulated overnight, 20 or 100 ng/ml
Method: as §1
The following cell lines were cultured in DMEM plus 10% FCS except for U-937 cells which were cultured in RPMI1640 plus 10% FCS: CMT-93 mouse and Caco-2 (with 20% FCS) human intestinal epithelial cell lines; NIH/3T3 mouse fibroblast line; Raw 264.7 mouse and U-937 human macrophage lines; BEAS-2B human bronchial epithelial cell line; 293T human embryonic kidney cell line (obtained from ATCC, Manassas, Va., except for NIH/3T3, which was provided by S. A. Aaronson, NIH). Fibroblast-like stromal cells were cultured from small intestines of BALB/c mice in DMEM/10% FBS. […]

[3] = system: Raw264.7 murine macrophages; assay: HRF secretion into culture supernatant, western blot, macrophages; format: cell-based, mouse; conditions: stimulated overnight, 20 or 100 ng/ml
Method: as §1, §2

[4] = system: BEAS-2B human bronchial epithelial cells; assay: HRF secretion, western blot, BEAS-2B; format: cell-based; conditions: combination of HDM and cytokine, 24 h
Text: As lung epithelial cells are exposed to the environment, HRF secretion was studied using BEAS-2B human bronchial epithelial cells. A small amount of HRF was secreted constitutively, but house dust mite allergens induced the secretion of high-molecular-weight HRF species (HMW-HRFs). Various cytokines including epithelial derived cytokines as well as Th2 cytokines and proinflammatory cytokines further enhanced HDM-induced secretion of HMW-HRFs.
Cultured cells were scraped and treated with adenosine and ATP, which should be abundantly present in inflammatory or injured tissues. These conditions induced secretion of HRF monomer, dimer and HMW-HRFs like stimulation with HDM plus cytokines.
Culture supernatants were analyzed by SDS-PAGE under nonreducing (−DTT) and reducing (+DTT) conditions, followed by western blotting for HRF probing. HDM-induced HRF secretion was enhanced not only by Th2 cytokines (IL-4, IL-5, and IL-13), but also by epithelial derived cytokines (IL-25, IL-33, and TSLP) and proinflammatory cytokines (IL-1beta, IL-6 and TNF). med, medium alone; US, unstimulated; HDM, house dust mite; CR, cockroach; RW, ragweed; Af, Aspergillus fumigatus. Arrowhead, HRF monomer.

[5] = system: c-Kit+ mucosal mast cells of the small intestine; assay: Ex vivo mast cell activation test (MCAT); format: cell-based, mouse; conditions: 15 min at 37° C.
Method: FIGS. 2A-2C show mucosal mast cells can be activated ex vivo by antigen. Cells were released with EDTA from small intestines of non-sensitized/OVA challenged (Cont) or OVA-sensitized/OVA-challenged (OVA) mice, and mononuclear cells were selected. The cells were incubated for 15 min at 37° C. with OVA or anti-IgE antibody, and activation of Kit^+ mast cells was measured by flow cytometry (FIG. 2A, FIG. 2B). **, ***: p<0.01, p<0.001 by Student's t-test. (n=2; a representative of 2 independent experiments) (FIG. 2C) Mucosal cells derived from OVA-sensitized/OVA-challenged mice were stimulated with PBS (n=4), OVA (10 ng/ml, n=4) or HRF dimer (100 μg/ml, n=2) in the presence or absence of HRF-2CA (300 μg/ml).
FIGS. 11A-11C show HRF dimer, but not monomer can activate mast cells. (FIG. 11A) Purified dimeric and monomeric HRF expressed in E. coli. Recombinant HRF-[…] was purified first by Histrap HP and then Sephacryl S-200 HR16/60. Two peaks were observed by Sephacryl size fractionation. The first (Fr1) and second (Fr3) peaks contained dimer and monomer, respectively, as shown by SDS-PAGE. Fr1 and Fr3 were used for mast cell stimulation. (FIG. 11B) Cells were released with 10 mM EDTA from small intestines of OVA-sensitized/OVA-challenged mice, and mononuclear cells were selected. The cells were incubated for 15 min at 37° C. with mHRF monomer or dimer (100 μg/ml), or PBS, and Kit^+ mast cell activation (LAMP-1^+) was measured by flow cytometry (n=3). (FIG. 11C) Control experiments indicate an excellent specificity of the assay for HRF multimers. HRF-2CA (2CA) was used as a monomer control (n=2 for each concentration). Note that total concentrations of the 1:9 mixture of dimer:monomer gave almost the same luminescence values as did ten-fold less concentrations of dimer.
Twenty-four hours after the last OVA challenge, mice were sacrificed and small intestines (0.5-15 cm from stomach) were collected. The intestinal tissues were opened longitudinally and washed with PBS. Then, the tissues were incubated with 10 mM EDTA-PBS for 30 min at 37° C. After incubation, the tissues were transferred to 30 ml PBS in 50 ml tubes and vigorously shaken. After washed, the cells were resuspended in 40% Percoll solution and slowly loaded on the top of 75% Percoll solution. The cells were then centrifuged (2000 rpm, 20 min) and lymphocytes were collected. The cells were once centrifuged and resuspended in Tyrode's buffer. Abs (Biotin-anti-CD4 mAb (clone RM4-5), Biotin-anti-CD8 mAb (clone 53-6.7), Biotin-anti-B220 mAb (clone RA3-6B2), Biotin-anti-CD326 mAb (clone G8.8), PE-anti-CD117 (clone 2B8), AlexaFluor647-anti-LAMP-1 mAb (clone 1D4B)) (Biolegend) were added and cells were then stimulated with OVA, anti-IgE (clone RME-1, BioLegend) and recombinant dimeric murine HRF for 15 min at 37° C. After activation, cells were washed and incubated with FITC-streptavidin (Catalog #405202, Biolegend) for 30 min at 4° C. LAMP-1 expression was detected using FACS Calibur. Data were analyzed using FlowJo software.

[6] = system: mouse bone marrow-derived mast cells (BMMCs); assay: IL-13 production of IgE-sensitized BMMCs stimulated with TNP3-BSA and mHRF dimer; format: cell-based; conditions: IL-13 ELISA
Method: (§3) FIGS. 33A-33B show HRF dimers enhance IgE/antigen-induced activation of mast cells and basophils. […] IL-13 in culture supernatants was quantified by ELISA. […] Then, HDM allergen (Dermatophagoides farinae at 10 ng/ml) was added to the cells together with FITC-anti-CD63 and APC-anti-CCR3 for 15 min. Expression of CD63 (activation marker) and CCR3 (basophil marker) was analyzed by flow cytometry.

basophils = assay: Basophil activation (CD63) in blood of an HDM-sensitized asthmatic; format: cell-based, human; conditions: 10 μg/ml, 30 min, then HDM allergen 10 ng/ml for 15 min
Method: as §3

[7] = system: OVA-induced allergic diarrhea; assay: Classical tolerance model, oral OVA before sensitization; format: in vivo, mouse
Method: (§4) In a classical tolerance model, five daily oral administrations of 1 mg OVA from day −11 to day −7 were performed before i.p. OVA/alum-sensitization on days 0 and 7 and followed by ig. OVA (30 mg) gavages on days 14, 21, 28 and 35. In another OIT model, mice were i.d. sensitized with OVA (750 μg) on days 0, 13 and 27 and followed by 9 oral OVA (60 mg) challenges from day 44 to day 60 to induce diarrhea in all mice. Then mice were i.g. treated with hourly increasing amounts of OVA on day 100 (0.1, 0.2, 0.5 mg), on day 101 (1, 2, 5 mg) and on day 102 (10, 20, 60 mg).
Applicant then tested the possibility provoked by the above human data that the level of HRF-reactive IgE is kept low in a desensitized state, using two murine models. In a classic tolerance model (30), five daily oral administrations of 1 mg OVA from day −11 to day −7 (OIT) prevented the OVA-induced development of allergic diarrhea in OVA-sensitized mice (FIG. 7B). By contrast, without oral pretreatment, all OVA-sensitized mice developed allergic diarrhea.

[8] = system: OVA-induced allergic diarrhea; assay: OIT desensitization model, hourly increasing amounts of OVA for 3 days; format: in vivo, mouse
Method: as §4
Finally, HRF-reactive IgE and HRF-reactive IgG were monitored in another desensitization model, which mimicked the human OIT more faithfully. OVA-sensitized mice were first rendered allergic by OVA challenges and then received hourly increasing amounts of OVA for 3 consecutive days (OIT) after a resting period (FIG. 7D). […] Levels of HRF-reactive IgG and OVA-specific IgG were not changed by OIT (FIG. 7E). In non-sensitized mice, HRF-reactive IgE and HRF-reactive IgG levels were not changed by OIT and OVA-specific IgE and IgG levels were extremely low irrespective of OIT treatment (data not shown).

[9] = cells from allergic (OVA-sensitized/OVA-challenged) mice

## IL-1β
[1]
  HRF secretion: strongly induced
[2]
  HRF secretion: enhanced
[3]
  secretion of HRF monomer: increased
[4]
  HDM-induced HRF secretion: enhanced

B1: HRF dimer: recombinant disulfide-linked dimer of mouse histamine releasing factor (protein, UniProt P63028 1-172, looked up)
Translationally-controlled …: MIIYRDLISHDELFSDIYKIREIADGLCLEVEGKMVSRTEGAIDDSLIGGNASAEGPEGEGTESTVVTGVDIVMNHHLQETSFTKEAYKKYIKDYMKSLKGKLEEQKPERVKPFMTGAAEQIKHILANFNNYQFFIGENMNPDGMVALLDYREDGVTPFMIFFKDGLEMEKC
modifications: disulfide-linked dimer
notes: recombinant disulfide-linked dimer of mouse histamine releasing factor
[5]; [9]
  activation (LAMP-1+) of mucosal mast cells by the substance: can activate
[5]; cells from allergic (OVA-sensitized/OVA-challenged) mice, listed as dimeric HRF
  activation (LAMP-1+) of mucosal mast cells by the substance: activated
[6]
  IgE/antigen-induced activation of mast cells: enhance

B2: hHRF dimer: human HRF dimer (protein)
chain: MIIYRDLISHDEMFSDIYKIREIADGLCLEVEGKMVSRTEGNIDDSLIGGNASAEGPEGEGTESTVITGVDIVMNHHLQETSFTKEAYKKYIKDYMKSIKGKLEEQRPERVKPFMTGAAEQIKHILANFKNYQFFIGENMNPDGMVALLDYREDGVTPYMIFFKDGLEMEKC
basophils
  IgE/antigen-induced activation of basophils (CD63): enhance

B3: OVA: food allergen of the murine model, also given orally as OIT (protein, UniProt P01012 2-386, looked up)
Ovalbumin: GSIGAASMEFCFDVFKELKVHHANENIFYCPIAIMSALAMVYLGAKDSTRTQINKVVRFDKLPGFGDSIEAQCGTSVNVHSSLRDILNQITKPNDVYSFSLASRLYAEERYPILPEYLQCVKELYRGGLEPINFQTAADQARELINSWVESQTNGIIRNVLQPSSVDSQTAMVLVNAIVFKGLWEKAFKDEDTQAMPFRVTEQESKPVQMMYQIGLFRVASMASEKMKILELPFASGTMSMLVLLPDEVSGLEQLESIINFEKLTEWTSSNVMEERKIKVYLPRMKMEEKYNLTSVLMAMGITDVFSSSANLSGISSAESLKISQAVHAAHAEINEAGREVVGSAEAGVDAASVSEEFRADHPFLFCIKHIATNAVLFFGRCVSP
[5]; [9]
  activation (LAMP-1+) of mucosal mast cells by the substance: further activated
[5]; cells from non-sensitized mice
  activation (LAMP-1+) of mucosal mast cells by the substance: few mast cells were activated
[7]; five daily oral administrations of 1 mg from day -11 to day -7
  OVA-induced development of allergic diarrhea: prevented
[7]; tolerance-induced vs non-tolerant and non-sensitized mice
  HRF-reactive IgE levels: significantly reduced
[8]; before vs after OIT
  levels of HRF-reactive IgE: lowered
  levels of HRF-reactive IgG and OVA-specific IgG: not changed
  levels of OVA-specific IgE: did not change
[8]; hourly increasing amounts for 3 consecutive days
  OVA-sensitized/OVA-challenged mice desensitized to the final gavage dose of 60 mg: 80%
